Experimental data published in US20120288494A1.

How the values were obtained:
IL-12 = IL-12 (UniProt P29460); experiment: receptor binding assay (RBA)
human IL-12 p70 (human) = human IL-12 p70 (human) (UniProt P29460); experiment: koff; method not given
Sequence of human IL-12 p70 (human) (P29460 23-328, chain 1 of 2): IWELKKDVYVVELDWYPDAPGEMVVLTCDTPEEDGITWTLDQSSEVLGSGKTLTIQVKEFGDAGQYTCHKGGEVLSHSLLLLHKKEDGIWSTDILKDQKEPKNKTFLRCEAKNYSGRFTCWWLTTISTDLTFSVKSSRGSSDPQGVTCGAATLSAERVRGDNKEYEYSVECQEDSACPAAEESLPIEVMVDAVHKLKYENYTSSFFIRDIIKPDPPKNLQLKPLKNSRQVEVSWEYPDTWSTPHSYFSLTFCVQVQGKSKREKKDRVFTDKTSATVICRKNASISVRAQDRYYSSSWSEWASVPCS
Sequence of human IL-12 p70 (human) (chain, as listed by the source, chain 2 of 2): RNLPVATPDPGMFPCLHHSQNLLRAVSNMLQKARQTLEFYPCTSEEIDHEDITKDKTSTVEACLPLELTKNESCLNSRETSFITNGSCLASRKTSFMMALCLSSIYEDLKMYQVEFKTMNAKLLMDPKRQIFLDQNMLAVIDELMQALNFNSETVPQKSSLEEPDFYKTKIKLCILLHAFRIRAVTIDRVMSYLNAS

Sequence of IL-12 (P29460 23-328, chain 1 of 2): as the sequence (P29460 23-328, chain 1 of 2) above
Sequence of IL-12 (P29459 23-219, chain 2 of 2, further chain): as the sequence (chain, as listed by the source, chain 2 of 2) above

| IC50 (IL-12) [nM] | fold increase in koff (against Y61) (human IL-12 p70 (human)) [fold] | Substance |
| --- | --- | --- |
| 0.02 |  | Y61 L50Y |
|  | 2.5 | Y61 with Asn-L31 mutated to aspartate (antibody) |
|  | 8 | Y61 with His-H95 mutated to glutamate (antibody) |
| 0.06 |  | Y61 L94Y |
